# Measurements reported in article PMC8310280.
# Molecular target: Shiftless (SHFL) WT (human) (UniProt Q9NUL5)
# Assay: EMSA
# Chain of Shiftless (SHFL) WT (human) (Q9NUL5 whole entry): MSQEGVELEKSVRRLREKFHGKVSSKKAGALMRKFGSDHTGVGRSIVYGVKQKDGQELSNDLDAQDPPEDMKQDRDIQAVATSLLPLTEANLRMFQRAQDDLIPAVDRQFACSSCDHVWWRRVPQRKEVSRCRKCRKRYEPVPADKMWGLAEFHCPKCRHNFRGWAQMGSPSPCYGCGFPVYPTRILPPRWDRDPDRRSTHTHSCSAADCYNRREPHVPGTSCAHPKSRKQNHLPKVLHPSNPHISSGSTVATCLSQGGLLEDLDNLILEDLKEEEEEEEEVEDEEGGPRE
row,Substance,Kd
1,GACCCUAGAUGACUAGGGAGGUCAGGGACACGAGCCCCCCCCUGAACCCAGGAUAACCCUCAAAGUCGGGGGGCAACCCGUCAC [MuLV S1],500 nM
2,GACCCUAGAUGACUAGGGAGGUCAGGGUCAGGAGCCCCCCCCUGAACCCAGGAUAACCCUCAAAGUCGGGGGGCAACCCGUCAC [MuLV RT signal],500 nM
3,IBVmax (wild-type pseudoknot),500 nM
4,control RNA (SARS-CoV-2 antigenome),500 nM
